We go through 125 sequences from the supplement of paper PMC9112550, “Optimization of the antimicrobial peptide Bac7 by deep mutational scanning” (BMC Biology, 2022).

This data set concerns Escherichia coli TOP10. The experiment in a line: shrunken log2 fold change of peptide-encoding DNA abundance (4.5 h post-induction vs induction); higher = less antimicrobial activity (less host growth inhibition). The following applies: time post-induction: 4.5 h; library: site-saturation at positions 5, 18, 19, 20.
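Also: peptides expressed intracellularly from a pBAD plasmid library in pooled LB shake-flask culture, induced with 0.3% L-arabinose, DNA abundance read by NGS, three biological replicates, DESeq2 with apeglm shrinkage.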

RRIRNRPPRLPRPRPRPYWQPRP: the “shrunken log2 fold change” value is -0.215. For RRIRKRPPRLPRPRPRPRAMPRP the value was -0.107; for RRIRWRPPRLPRPRPRPHLTPRP, -0.19; for RRIRIRPPRLPRPRPRPCEVPRP, 0.0421.

Take RRIRGRPPRLPRPRPRPGIYPRP: the “shrunken log2 fold change” value came to 0.641.

RRIRVRPPRLPRPRPRPVMHPRP: the “shrunken log2 fold change” value is -0.0179. For the sequence RRIRTRPPRLPRPRPRPQANPRP, the “shrunken log2 fold change” value was -0.156.

Regarding RRIRDRPPRLPRPRPRPQSSPRP, the “shrunken log2 fold change” value was 0.0176. The result for RRIRQRPPRLPRPRPRPTQPPRP reads 0.356; that for RRIRYRPPRLPRPRPRPNHMPRP, -0.611.

In the case of RRIRKRPPRLPRPRPRPFWYPRP, the “shrunken log2 fold change” value is 0.0709. The result for RRIRMRPPRLPRPRPRPKNKPRP reads 0.408; that for RRIRNRPPRLPRPRPRPWSLPRP, -0.0288; that for RRIRTRPPRLPRPRPRPEIVPRP, 0.00632. For RRIRRRPPRLPRPRPRPQTGPRP the value was 0.0354; for RRIRIRPPRLPRPRPRPHGDPRP, -0.125; for RRIRSRPPRLPRPRPRPQFHPRP, -0.206. For RRIRGRPPRLPRPRPRPWVGPRP the value was 0.12; for RRIRGRPPRLPRPRPRPPNIPRP, 0.083. Turning to RRIRLRPPRLPRPRPRPSYAPRP, the “shrunken log2 fold change” value is -0.134. Consider RRIRWRPPRLPRPRPRPLSWPRP, for which the “shrunken log2 fold change” value came out at 0.0993.

In the case of RRIRRRPPRLPRPRPRPQACPRP, the “shrunken log2 fold change” value amounted to 0.0222.

For RRIRTRPPRLPRPRPRPYLVPRP, the “shrunken log2 fold change” value is -0.489. For RRIRWRPPRLPRPRPRPTQMPRP the value was 0.59; for RRIRGRPPRLPRPRPRPQLDPRP, 0.646.

For RRIRTRPPRLPRPRPRPWNWPRP, the “shrunken log2 fold change” value amounted to 0.0309. For RRIRYRPPRLPRPRPRPWGLPRP the value was -0.0143.

For RRIRDRPPRLPRPRPRPYFVPRP, the “shrunken log2 fold change” value was -0.362.

In the case of RRIRRRPPRLPRPRPRPSCHPRP, the “shrunken log2 fold change” value was -0.0344. Consider RRIRFRPPRLPRPRPRPDGVPRP, for which the “shrunken log2 fold change” value is -0.14.

RRIRQRPPRLPRPRPRPSERPRP: the “shrunken log2 fold change” value was -0.143. For RRIRTRPPRLPRPRPRPVNQPRP the value was 0.0163; for RRIRIRPPRLPRPRPRPDCNPRP, -0.164.

Consider RRIRPRPPRLPRPRPRPNKDPRP, for which the “shrunken log2 fold change” value is -0.534.

Turning to RRIRRRPPRLPRPRPRPSTFPRP, the “shrunken log2 fold change” value was -0.02. For RRIRQRPPRLPRPRPRPKTYPRP the value was -0.241; for RRIRKRPPRLPRPRPRPCPNPRP, -0.0875. For RRIRPRPPRLPRPRPRPRLVPRP the value was 0.323; for RRIRHRPPRLPRPRPRPTCAPRP, 0.242; for RRIRTRPPRLPRPRPRPCVYPRP, -0.243. The result for RRIRVRPPRLPRPRPRPVRWPRP reads 0.805.

For the sequence RRIRRRPPRLPRPRPRPPFQPRP, the “shrunken log2 fold change” value is 0.746. For RRIRNRPPRLPRPRPRPYKKPRP the value was -0.00559; for RRIRMRPPRLPRPRPRPVHFPRP, 0.602. The result for RRIRARPPRLPRPRPRPSFTPRP reads 0.582; that for RRIRIRPPRLPRPRPRPQRSPRP, -0.0897. The result for RRIRWRPPRLPRPRPRPWPCPRP reads 0.0272; that for RRIRNRPPRLPRPRPRPEEAPRP, 0.612; that for RRIRHRPPRLPRPRPRPQHKPRP, -0.494. For the sequence RRIRKRPPRLPRPRPRPSEWPRP, the “shrunken log2 fold change” value worked out at 0.212. Turning to RRIRMRPPRLPRPRPRPSRFPRP, the “shrunken log2 fold change” value came to 0.253. In the case of RRIRLRPPRLPRPRPRPIDGPRP, the “shrunken log2 fold change” value was -0.0968. For the sequence RRIRVRPPRLPRPRPRPTAWPRP, the “shrunken log2 fold change” value came out at 0.145. As to RRIRYRPPRLPRPRPRPYHTPRP, the “shrunken log2 fold change” value is -0.0274. For RRIRTRPPRLPRPRPRPRGRPRP the value was 0.593; for RRIRFRPPRLPRPRPRPECCPRP, 0.225; for RRIRPRPPRLPRPRPRPACRPRP, 0.183. The result for RRIRSRPPRLPRPRPRPPGIPRP reads 0.157; that for RRIRKRPPRLPRPRPRPIRYPRP, -0.118.

Turning to RRIRSRPPRLPRPRPRPQLPPRP, the “shrunken log2 fold change” value turned out to be 0.53.

As to RRIRPRPPRLPRPRPRPSWSPRP, the “shrunken log2 fold change” value was -0.0705. With RRIRRRPPRLPRPRPRPLVRPRP, the “shrunken log2 fold change” value is 0.033. The result for RRIRCRPPRLPRPRPRPYQEPRP reads -0.276. For RRIRTRPPRLPRPRPRPNNIPRP, the “shrunken log2 fold change” value is -0.695. For the sequence RRIRHRPPRLPRPRPRPKVFPRP, the “shrunken log2 fold change” value is -0.00193. For RRIRSRPPRLPRPRPRPKDEPRP, the “shrunken log2 fold change” value was determined as 0.382. The result for RRIRQRPPRLPRPRPRPQGVPRP reads 0.0036; that for RRIRNRPPRLPRPRPRPMTQPRP, -0.249. The result for RRIRLRPPRLPRPRPRPEFQPRP reads -0.0134. With RRIRQRPPRLPRPRPRPVTKPRP, the “shrunken log2 fold change” value was -0.0142.

With RRIRHRPPRLPRPRPRPSLSPRP, the “shrunken log2 fold change” value is -0.619. For RRIRTRPPRLPRPRPRPFELPRP the value was -0.0363; for RRIRVRPPRLPRPRPRPMHWPRP, 0.253. The result for RRIRPRPPRLPRPRPRPNAFPRP reads -0.0225; that for RRIRMRPPRLPRPRPRPSPHPRP, 0.18; that for RRIRPRPPRLPRPRPRPCCMPRP, -0.144.

For the sequence RRIRHRPPRLPRPRPRPDLPPRP, the “shrunken log2 fold change” value stood at 0.107.

On to RRIRDRPPRLPRPRPRPWGTPRP, for which the “shrunken log2 fold change” value came out at 0.0812. The result for RRIRHRPPRLPRPRPRPMWMPRP reads -0.000946.

As to RRIRLRPPRLPRPRPRPKMAPRP, the “shrunken log2 fold change” value was 0.259.

For the sequence RRIRCRPPRLPRPRPRPVAGPRP, the “shrunken log2 fold change” value is 0.0113. Regarding RRIRARPPRLPRPRPRPNIFPRP, the “shrunken log2 fold change” value was 0.0429. For RRIRHRPPRLPRPRPRPSKEPRP the value was -0.0697; for RRIRLRPPRLPRPRPRPYMAPRP, -0.608; for RRIRRRPPRLPRPRPRPLELPRP, 0.199. Consider RRIRWRPPRLPRPRPRPHRFPRP, for which the “shrunken log2 fold change” value was 0.077.

Consider RRIRNRPPRLPRPRPRPFSPPRP, for which the “shrunken log2 fold change” value is -0.148. Turning to RRIRARPPRLPRPRPRPLHDPRP, the “shrunken log2 fold change” value is 0.341. For RRIRIRPPRLPRPRPRPYQYPRP the value was -0.19. As for RRIRERPPRLPRPRPRPYWFPRP, the “shrunken log2 fold change” value was -1.02.

In the case of RRIRARPPRLPRPRPRPVKVPRP, the “shrunken log2 fold change” value was found to be 0.0388. With RRIRQRPPRLPRPRPRPSQRPRP, the “shrunken log2 fold change” value is -0.523. As to RRIRSRPPRLPRPRPRPRMQPRP, the “shrunken log2 fold change” value amounted to 0.108. The result for RRIRCRPPRLPRPRPRPWDSPRP reads -0.36; that for RRIRDRPPRLPRPRPRPSWMPRP, -0.166. As to RRIRIRPPRLPRPRPRPSQCPRP, the “shrunken log2 fold change” value is -0.0584. RRIRIRPPRLPRPRPRPGGMPRP: the “shrunken log2 fold change” value is -0.0648. For RRIRYRPPRLPRPRPRPLPIPRP the value was -0.722; for RRIRHRPPRLPRPRPRPTFPPRP, 0.145. For RRIRERPPRLPRPRPRPEPAPRP the value was 0.428; for RRIRNRPPRLPRPRPRPKFFPRP, -0.298; for RRIRERPPRLPRPRPRPVGSPRP, -0.174. Regarding RRIRTRPPRLPRPRPRPSWRPRP, the “shrunken log2 fold change” value was determined as 0.153.

Regarding RRIRYRPPRLPRPRPRPGSGPRP, the “shrunken log2 fold change” value is -0.0839. Take RRIRKRPPRLPRPRPRPGKMPRP: the “shrunken log2 fold change” value was -0.0991. For RRIRMRPPRLPRPRPRPNHAPRP the value was -0.113.

For the sequence RRIRGRPPRLPRPRPRPIECPRP, the “shrunken log2 fold change” value came out at 0.146. The result for RRIRRRPPRLPRPRPRPNVPPRP reads 0.032; that for RRIRDRPPRLPRPRPRPERVPRP, 0.388. Take RRIRERPPRLPRPRPRPDTTPRP: the “shrunken log2 fold change” value was determined as 0.0503. Take RRIRCRPPRLPRPRPRPSGTPRP: the “shrunken log2 fold change” value is -0.0132.

For the sequence RRIRWRPPRLPRPRPRPADQPRP, the “shrunken log2 fold change” value was determined as 0.0591.

Regarding RRIRIRPPRLPRPRPRPTEPPRP, the “shrunken log2 fold change” value was 0.0374. The result for RRIRWRPPRLPRPRPRPDTTPRP reads 0.255; that for RRIRQRPPRLPRPRPRPRYGPRP, -0.407. The result for RRIRKRPPRLPRPRPRPVLFPRP reads 0.327.

Turning to RRIRTRPPRLPRPRPRPLFCPRP, the “shrunken log2 fold change” value is -0.287. As to RRIRCRPPRLPRPRPRPEPWPRP, the “shrunken log2 fold change” value turned out to be 0.634.

In the case of RRIRMRPPRLPRPRPRPMHEPRP, the “shrunken log2 fold change” value is 3.07. For RRIRYRPPRLPRPRPRPVAAPRP the value was 0.149. The result for RRIRFRPPRLPRPRPRPVHIPRP reads 0.0681; that for RRIRARPPRLPRPRPRPALTPRP, 0.642; that for RRIRARPPRLPRPRPRPVISPRP, 0.0798. Turning to RRIRLRPPRLPRPRPRPDYQPRP, the “shrunken log2 fold change” value is -0.137. As for RRIRARPPRLPRPRPRPMMCPRP, the “shrunken log2 fold change” value amounted to 0.544.
